The DeepSol protein solubility set

Experiment: soluble on expression in E. coli; label from the status in PepcDB or PDB records

| Sequence | soluble on expression in E. coli |
| --- | --- |
| MGSDKIHHHHHHAACEKDPDMDKLDNDYLVYTNYDKKADFKQFSTYYIPDSVLVIGDKKDPEYWKGEAAEAIINAYKENLNSKGFTYTDNKDAADLGIQVSYVQSTYYFTDYGQPEWWWNYPGYWDAPYWGNWGGWYYPYVVNYSITTNSFLTEIMNLKAPEGEKQKLPVLWSSFLSGPASYSGKVNQTLVVRAINQSFAQSPYLTNK | not soluble |
| MGSDKIHHHHHHADTFSVLAHELMHFVYPSGTELLTPNVTKAANKCTQDEVKMMGDSDAVKPIDGWFSKKVTHEDLANIMGLRMVMKMAAKKSVNEEQLKNALETILGGLCIQGKPKNSILPHHHPFEISINTAVRQYPLFSSLYGCRPGDRMFAEAEKFCNPLGGEVNLEDYKIKNDTEDIGGFFNYIMDTANAFNFSIEN | not soluble |
| MGSDKIHHHHHHAFTTGENDPFIKSPTVAKLTNTPNGPLISCDLKALKDTVNFPLSQLTEELQIVKLDNRDEALIGGWIRTTVGEKYILVSNNKQTPYKLFDRTGKFITNIGSYGQGPNEYLNTYAEQLDEANNRIYILPWQSSKILVFDLKGNALDPIPLCLRVPKGKFRVNTAKSEVTVTVLPFPKWPAVVWTQDLKGKRKNFVAPGSLAMPQDFSNEVSMGNNTAAYDVMLMKIMPQPSVDTLYHYNAASNKLEGRFTVKYPSNDKIPWHAYYEIPKYFIGDVSFPIQIDESTFSGSKPAYYMVDKKTLHGNYVRLYNDFISTPSQTIYPSFNNGYYVTNMEPMALKEILEKEVNKKGLTADKKKKVQNLIKTLNDNDNNIVMFAKLKQ | not soluble |
| MGSDKIHHHHHHAITVEENPNMMYMLVGSYATPEEEGIKVYNFDEQNGNSQYISGIKGISNPSFLIPSADGERIYAVGEDSGKSSTANAIKFDKEQKKLTLLNSQPTDGGAPCYITLSPSEKFVLTANYIGGSITVFPLDKDGKLKSETRLISFTGNSLDKERQTQPHLHCIEFTPDHKYLLASDLGTDQIHVFPVSENVTDGVSHSLLNESEEFNIKVESGSGPRHICFHPNQKFAYLINEISGKVIAFSYDKGKLNAIQYIEADTVGAKGSGDIHISPDGKFLYASNRLKADGIAIFSINQEEGTLTKTGYQLTGIHPRNFIISRNGRYLLVACRDSNSIQVFERDSQTGLLKDTGKTIKTNKPVCLKFTF | not soluble |
| MGSDKIHHHHHHALGGCGLVPKQPITQQPMTALPPMPPQAQSPGSIFNPGYAGRPLFEDQRPRNVGDILTIVIQENVNATKSSGANANRSGNTNFNVPTAGFLGGLFGKTNLSATGANVFSGTGGANASNTFNGTITVTVTGVLPNGNLMVSGEKQMLINQGDEFVRFSGVVNPNTISNLNAVYSTQVADAKIEYSAKGYLNEAENMGWLQRFFLNVSPW | not soluble |
| MGSDKIHHHHHHALGVVDEVHAGKEIGLQIYSLSQELYKGDVAANLRKVKDMGYSKLELAGYGKGAIGGVPMMDFKKMAEDAGLKIISSHVNPVDTSISDPFKAMIFKYSKEVTPKIMEYWKATAADHAKLGCKYLIQPMMPTITTHDEAKLVCDIFNQASDVIKAEGIATGFGYHNHNMEFNRVATKEQQEKVKGNPFAAFMKVGDQIYDLMLKDTDPSKVYFEMDVYWTVMGQNDPVEYMQKHPDRIKVLHIKDRAVFGQSGMMNFEMIFKQMYANGIKDYFVELEQMPDGRTQFAGVKDCADYLIKAPFVK | not soluble |
| MGSDKIHHHHHHAPPTFPEVKKIHAHRLSDELLISYPLDMAVSEDYIFILALADNAWLQVYDKTTGQLLGSFVTRGQGPGEATTANMCYYNAREKKISVYDESSMKLLTYRFDKDADNWGALIEERSFYDLGGTVRRVWELRNGRFLVDGQLGTKSDQQKRFQMLADAKVVADYNDFPIDTPKERSVWSSPAIAISPDCKKMAVGTLYGGILELFDLSQNIELRAIRKFYPPVVQYLSGTIQNTEETVWGFSALCVTDERIYSVFIGDKNPNLFNNLSVFDWDGRELIKYNTDCLVLRICASTQEPNKLYGIAFSETHEFYLVSFSLGS | not soluble |
| MGSDKIHHHHHHAQLVERVCRTDYKISPERKGELLLELDNISFFKDNEFAGTVIKGYSLPGLWIQPKFVYYPLKNIKLEGGVHMLWFSGAYRYPSVSYQDIALWKGEQYQKGAHLLPFFRAQISMKSVDLILGNIYGGSNHGLIAPLYNPELNLTADPETGFQVLAGAPWIDLDAWIDWQSFIFRDDTHQEAFTVGLSTRFKLNAPSSTFHCYIPLQILAQHRGGEIDTIRESSVQTLMNGAVGAGVTWNIDRRILKRVNVELDAAGYYQQKGELWPYHKGIGVYSSAFVDLGNFRVKMGHWICNDFITMFGIPYFGTVSTKKEGITYDKPQTLFCSIEYSRMFGKHYALGLKADAYQFFPGTMRSANGELTSPGSTTSFSVGVYFRINPSFLLKKF | not soluble |
| MGSDKIHHHHHHAQSLKDLLNKDNISKVVNAITGTPETIDMTGTWTYSGSAVEFESDNLLMKAGGAAAATMAENKLNEQLSKVGIKEGQMSFTFNADSTFTSTVGKKKLSGTYSYNASTKQVDLKYLKLLNLHAKVNCTSNSMDLLFNSDKLLKLMTFLGSKTNSTALKTVSSLAENYDGMMLGFGLKK | not soluble |
| MGSDKIHHHHHHARRNSTSRGSDSAARSPPSIRASHLKHCCFPIKEPTMSTINYSEKIPNNVNLADDRTLQRALEQWQPNFLSWWGDMGPDGSHGYDVYLRTAVSVDAGGWAHFDHVKMPDYRWGIFLTPGEQDRKIQFGEHKGEAAWQDVPGEHRANLRRIIVTQGDTEPASVEQQRHLGLTAPSMYDLRNLFQVNVEEGRHLWAMVYLLHRYFGRDGREEAEALLGRRSGDDDNPRILGAFNEKTPDWLAFYMFTYFTDRDGKFQLSALAESGFDPLARTTKFMLTEEAHHMFVGESGVSRVVQRTAQVMNELKTDDVNQIRAAGVIDLPTIQRYLNFHYSVTIDLFGADHSSNAATFYSSGLKGRYEETKRDDDHQLGGQSYKLLDVQDGKLVEREVPMLNAMNEVLRDDYIKDSVAGVNRWNKVLEKAGIEFRLTVPHKAFNRQIGTFAGTRVAPDGRVVSETEWAANEAKWLATPEDRAYVASLMGRVVEPGKFANWIAPPAMGINRQPIDFEYVRFN | not soluble |
| MGSDKIHHHHHHAVDAKLLEMLRANGSINQAQYNELQGDLAKETKEKADQKAQSERMSSFEQKVAWAAKTQIKGDVRLRYEDVNVDDPNSSSGNQDRQRVRARVGFYSEINPQVDAGVRIATGSSADRRSTNQSFDNYFDKKSLWVDLAYLDWHPTAVPNLHLIGGKMQQPWVSMGDIIWDSDINPEGVAATYKADLGGAEVFASAGQYTLKDNVDGDGVQYKHDAQVYHGQLGAKFAPADVLKLTVGASIYGYDNDKEAAILQSFGNTTNEFNLVEGFGQIDFTGLAIPLSAYGQYVKNTDSTDGEDQAWLAGLKTKMGAWSLDYNYRDVQRNAVVSLFTDSDFGNGYTGSRGHKFKVGYEIDKNFSLGAAYLMAKTDLSQLPNSNADVDTLQVDLEAKF | not soluble |
| MGSDKIHHHHHHAYGILGVLAITKDEAVLVAVTGVLSVGQLYGADILKITNVEFISLRTFGSVENVDSRIIDLQRQFIDLKKMFEKIIKKILKNLQRLLSSQMFYFSSLQSYDLTRSAQHRDSHDCSDARFFWNRSLHFSFQRYGIDTDNWLLKCMAGSVLVRVVYVGANTGRVALISRLSCERVGTRFNVRGANYLGNVANFVETEQLLLFDEKECSLLQIRGSIPLFWEQPGVNVGSHKVKLRAFETSLPAYHRHLSQLQHRYGEFAIVNLLGRKEGERVLGDAFKTQHKSSHFAPLVDFIDFDYHAQMKISKEAI | not soluble |
| MGSDKIHHHHHHCLDVDIVDRVEKEDGFFKTEDHALAAINGVYSTLYAFAYHKTNWAIILPTYEDAMFSTGNAVPATVSNNTHSAGSAPVVNFWGELYNGIKNANEVIARVPSISFKSENDKNRIIAEAYFLRALYHYDLMRLYGGVNGIPIVIEPVTGIENAYVPQSPASKVYEQIISDFEYAAGLNDDDTPRLPKRLDPAYTSGRVTNGAAHAFLAEVYLTLGRWEDAAREAQEVISSEQYTFVNDYQNLWDIEQESLAQTEHIFSVPFFRDKDALADQSLGSNIAHLFNPAGVQVGGKLVSGNPYGKGAGAHRVQKWFIKYFQDDQGNLGYSDPSVDASIDESKLISKDYRIEVTFWRRFQQKNNNTGVLGNIVTVYPAAGGNSQENWGYIRKFIDPQGINNRTNENDMPRLRLSDMYLIRAEALNELGKYTEACQAIDMVRERARKANGTERAYPKYIGSDRPDNIGRTLTKQEFRWLVFMERGLEFAGEQKRWFDLIRMKYDENTQMYDYIKDTFIPSRPAADVQKQGVMAARKKYFPIPFAEVSRNDGVQQNPGY | not soluble |
| MGSDKIHHHHHHDSFLDEKMYSSYGPEVSDVNAKLVGLHRQYAAIWGMSSQQGFVGCWQVGTDVGAPGDTQGVEVPFYRYQELNAENAGVSFLWEKLYELINSANQIIASQAEGGDAAATAEAMFFRAYAYNMLVTLWGDVPLVTESTSIPRTDYTRNAVAEVDGVIDSDLVYAMSNLPVVGAAKNESRINQDMARQLAGEAYLRMGMRDASYFKKAEDAVTPIITGGKYELISARYGKYAAEPGDYYHDMFRWGNQRRSQGNMEAIWTFEMEYNRDVNGGTIDNPQQRRNWVPAFHKLDGMVNADSIGGRGNGRLRISNFVKYGLYEKGDIRNSNYNIRRVMWYNKPGFSKEVGIDAKGFLVDKDKGIRNVTLKTGDQVIPHEGDSLNVFYPHPTKWGAYDETDDFGYAVVKDWPVMRLGETYLLRAEARFRQGNTQGAADDINVLRDRAFKDYRAVAPGAGKVTADQIDIDFILDERARELISEENRRMTLVRTNTLAERIKLNGDMEPAAPSNKVITGFDANIHTLLPIPLTEIQLNKDGDLKQNPGY | not soluble |
| MGSDKIHHHHHHEADNYEPPKVDLKDQIPIILIHGSGGNASSLDKMADQLMNEYRSSNEALTMTVNSEGKIKFEGKLTKDAKRPIIKFGFEQNQATPDDWSKWLKIAMEDLKSRYGFTQMDGVGHSNGGLALTYYAEDYAGDKTVPTLRKLVAIGSPFNDLDPNDNGMDLSFKKLPNSTPQMDYFIKNQTEVSPDLEVLAIAGELSEDNPTDGIVPTISSLATRLFMPGSAKAYIEDIQVGEDAVHQTLHETPKSIEKTYWFLEKFKTDETVIQLDYK | not soluble |
| MGSDKIHHHHHHEDDCATNPEPAGDVTEIKLSAGIQGVATRTPVSTNDNITAPFVASATTGDYTTNAWSSTVTFVASPTPTAALSFSPARYYPVDNSPIYIRGYYPAGTLSGKTVTLAGDGTEDVMLTAQASGTKATAGALSFVFNHLLTQLQFKLVAGAGYPASGVNVTSLVIKQQKTPATLDLNTSSLTYTTKDLTLSGTFPILTAGSTINNYPMVKSGEALTVAVTTSDGVTYPESTISVTTEVGKSHLITLTFTPKEITSSISVTAWQTGGTGSSTLQ | not soluble |
| MGSDKIHHHHHHENDPPLSSCGIFQSRIAGDALLDSGIRISSVFASPALRCVQTAKLILEELKLEKKIKIRVEPGIFEWTKWEAGKTTPTLMSLEELKEANFNIDTDYRPAFPLSALMPAESYQEYMDRCTASMVQIVNTCPQDTGVILIVSHGSTLDSCTRPLLGLPPRECGDFAQLVRKIPSLGMCFCEENKEEGKWELVNPPVKTLTHGANAAFNWRNWISGN | not soluble |
| MGSDKIHHHHHHENLYFQGMKKVFITTGTEHYLRQLMENYIGENVTLLQNFSQSLLYQESTGEKLFQEGKEYRVLQSSGSLKGFGIVVFEYIQLRDEEIPIFLQMYQHASLHFSETPGLQSTKLTKAMNTNQFLIVSFWDSEVFFQEWKKTPLHKEITSIMKKNNTQVGFSHEDIYHYPEFSHDAK | soluble |
